Values quoted from earlier work, collected in PMC3617488 (European journal of nuclear medicine and molecular imaging, 2011).

Columns and labels:
[1] = human

## AC3174: exendin-4 analog which contains a leucine for methionine substitution
other
  Plasma half-life (comparison with exendin-4): shorter plasma half-life

## exendin-4: subcutaneously administered peptide drug used in the treatment of type 2 diabetes
[1]
  Half-life of the parent peptide: 9.57 h
